In patent publication US20250352661A1 (MYTHIC THERAPEUTICS, published 2025):

B1: MYT9493 (antibody, V domains shown)
VH: EVQLVESGGGLVQPGGSLRLSCTASGFSFSSSHWICWVRQAPGKGLEWVGCIYAGSIGSTYYASWAKGRFTISRDTSKNTVYLQMNSLRAEDTAVYYCDRAPNDIYNYYFNLWGQGTLVTVSS
VL: EIVMTQSPSTLSASVGDRVIITCQASENIYNYLAWYQQKPGKAPKLLIYYASTLASGVPSRFSGSGSGAEFTLTISSLQPDDFATYYCQSGYVSKSSTFGQGTKLTVL
notes: Humanized 29F1 VH aspartate variant; also called hu29F1 VH A99D
B2: MYT9494 (antibody, V domains shown)
VH: EVQLVESGGGLVQPGGSLRLSCTASGFSFSSSHWICWVRQAPGKGLEWVGCIYAGSIGSTYYASWAKGRFTISRDTSKNTVYLQMNSLRAEDTAVYYCADAPNDIYNYYFNLWGQGTLVTVSS
VL: EIVMTQSPSTLSASVGDRVIITCQASENIYNYLAWYQQKPGKAPKLLIYYASTLASGVPSRFSGSGSGAEFTLTISSLQPDDFATYYCQSGYVSKSSTFGQGTKLTVL
notes: also called hu29F1 VH R100D
B3: MYT9727 (antibody, V domains shown)
VH: EVQLVESGGGLVQPGGSLRLSCTASGFSFSSSHWICWVRQAPGKGLEWVGCIYAGSIGSTYYASWAKGRFTISRDTSKNTVYLQMNSLRAEDTAVYYCARAPNDIYNYYFNLWGQGTLVTVSS
VL: EIVMTQSPSTLSASVGDRVIITCEASENIYNYLAWYQQKPGKAPKLLIYYASTLASGVPSRFSGSGSGAEFTLTISSLQPDDFATYYCQSGYVSKSSTFGQGTKLTVL
notes: Humanized 29F1 with VL Q24E; captured by anti-human Fc sensor
B4: MYT9728 (antibody, V domains shown)
VH: EVQLVESGGGLVQPGGSLRLSCTASGFSFSSSHWICWVRQAPGKGLEWVGCIYAGSIGSTYYASWAKGRFTISRDTSKNTVYLQMNSLRAEDTAVYYCARAPNDIYNYYFNLWGQGTLVTVSS
VL: EIVMTQSPSTLSASVGDRVIITCQESENIYNYLAWYQQKPGKAPKLLIYYASTLASGVPSRFSGSGSGAEFTLTISSLQPDDFATYYCQSGYVSKSSTFGQGTKLTVL
notes: also called hu29F1 VL A25E
B5: MYT9752 (antibody, V domains shown)
VH: EVQLVESGGGLVQPGGSLRLSCTASGFSFSSSHWICWVRQAPGKGLEWVGCIYAGSIGSTYYASWAKGRFTISRDTSKNTVYLQMNSLRAEDTAVYYCARAPNDIYNYYFNLWGQGTLVTVSS
VL: EIVMTQSPSTLSASVGDRVIITCQASENIYNYLAWYQQKPGKAPKLLIYYASTLASGVPSRFSGSGSGAEFTLTISSLQPDDFATYYCQSGYVSKESTFGQGTKLTVL
notes: also called hu29F1 VL S96E
B6: MYT9738 (antibody, V domains shown)
VH: EVQLVESGGGLVQPGGSLRLSCTASGFSFSSSHWICWVRQAPGKGLEWVGCIYAGSIGSTYYASWAKGRFTISRDTSKNTVYLQMNSLRAEDTAVYYCARAPNDIYNYYFNLWGQGTLVTVSS
VL: EIVMTQSPSTLSASVGDRVIITCQASENIYNYLAWYQQKPGKAPKLLIYEASTLASGVPSRFSGSGSGAEFTLTISSLQPDDFATYYCQSGYVSKSSTFGQGTKLTVL
notes: Humanized 29F1 with VL Y50E; captured by anti-human Fc sensor
B7: MYT9745 (antibody, V domains shown)
VH: EVQLVESGGGLVQPGGSLRLSCTASGFSFSSSHWICWVRQAPGKGLEWVGCIYAGSIGSTYYASWAKGRFTISRDTSKNTVYLQMNSLRAEDTAVYYCARAPNDIYNYYFNLWGQGTLVTVSS
VL: EIVMTQSPSTLSASVGDRVIITCQASENIYNYLAWYQQKPGKAPKLLIYYASTLASGVPSRFSGSGSGAEFTLTISSLQPDDFATYYCESGYVSKSSTFGQGTKLTVL
notes: also called hu29F1 VL Q89E
B8: MYT9734 (antibody, V domains shown)
VH: EVQLVESGGGLVQPGGSLRLSCTASGFSFSSSHWICWVRQAPGKGLEWVGCIYAGSIGSTYYASWAKGRFTISRDTSKNTVYLQMNSLRAEDTAVYYCARAPNDIYNYYFNLWGQGTLVTVSS
VL: EIVMTQSPSTLSASVGDRVIITCQASENIYEYLAWYQQKPGKAPKLLIYYASTLASGVPSRFSGSGSGAEFTLTISSLQPDDFATYYCQSGYVSKSSTFGQGTKLTVL
notes: also called hu29F1 VL N31E
B9: MYT9741 (antibody, V domains shown)
VH: EVQLVESGGGLVQPGGSLRLSCTASGFSFSSSHWICWVRQAPGKGLEWVGCIYAGSIGSTYYASWAKGRFTISRDTSKNTVYLQMNSLRAEDTAVYYCARAPNDIYNYYFNLWGQGTLVTVSS
VL: EIVMTQSPSTLSASVGDRVIITCQASENIYNYLAWYQQKPGKAPKLLIYYASELASGVPSRFSGSGSGAEFTLTISSLQPDDFATYYCQSGYVSKSSTFGQGTKLTVL
notes: Humanized 29F1 with VL T53E; captured by anti-human Fc sensor
B10: MYT9739 (antibody, V domains shown)
VH: EVQLVESGGGLVQPGGSLRLSCTASGFSFSSSHWICWVRQAPGKGLEWVGCIYAGSIGSTYYASWAKGRFTISRDTSKNTVYLQMNSLRAEDTAVYYCARAPNDIYNYYFNLWGQGTLVTVSS
VL: EIVMTQSPSTLSASVGDRVIITCQASENIYNYLAWYQQKPGKAPKLLIYYESTLASGVPSRFSGSGSGAEFTLTISSLQPDDFATYYCQSGYVSKSSTFGQGTKLTVL
notes: Humanized 29F1 with VL A51E; captured by anti-human Fc sensor
B11: MYT9732 (antibody, V domains shown)
VH: EVQLVESGGGLVQPGGSLRLSCTASGFSFSSSHWICWVRQAPGKGLEWVGCIYAGSIGSTYYASWAKGRFTISRDTSKNTVYLQMNSLRAEDTAVYYCARAPNDIYNYYFNLWGQGTLVTVSS
VL: EIVMTQSPSTLSASVGDRVIITCQASENEYNYLAWYQQKPGKAPKLLIYYASTLASGVPSRFSGSGSGAEFTLTISSLQPDDFATYYCQSGYVSKSSTFGQGTKLTVL
notes: also called hu29F1 VL I29E
B12: MYT9730 (antibody, V domains shown)
VH: EVQLVESGGGLVQPGGSLRLSCTASGFSFSSSHWICWVRQAPGKGLEWVGCIYAGSIGSTYYASWAKGRFTISRDTSKNTVYLQMNSLRAEDTAVYYCARAPNDIYNYYFNLWGQGTLVTVSS
VL: EIVMTQSPSTLSASVGDRVIITCQASANIYNYLAWYQQKPGKAPKLLIYYASTLASGVPSRFSGSGSGAEFTLTISSLQPDDFATYYCQSGYVSKSSTFGQGTKLTVL
notes: Humanized 29F1 with VL E27A; captured by anti-human Fc sensor
B13: MYT9736 (antibody, V domains shown)
VH: EVQLVESGGGLVQPGGSLRLSCTASGFSFSSSHWICWVRQAPGKGLEWVGCIYAGSIGSTYYASWAKGRFTISRDTSKNTVYLQMNSLRAEDTAVYYCARAPNDIYNYYFNLWGQGTLVTVSS
VL: EIVMTQSPSTLSASVGDRVIITCQASENIYNYEAWYQQKPGKAPKLLIYYASTLASGVPSRFSGSGSGAEFTLTISSLQPDDFATYYCQSGYVSKSSTFGQGTKLTVL
notes: also called hu29F1 VL L33E
B14: MYT9740 (antibody, V domains shown)
VH: EVQLVESGGGLVQPGGSLRLSCTASGFSFSSSHWICWVRQAPGKGLEWVGCIYAGSIGSTYYASWAKGRFTISRDTSKNTVYLQMNSLRAEDTAVYYCARAPNDIYNYYFNLWGQGTLVTVSS
VL: EIVMTQSPSTLSASVGDRVIITCQASENIYNYLAWYQQKPGKAPKLLIYYAETLASGVPSRFSGSGSGAEFTLTISSLQPDDFATYYCQSGYVSKSSTFGQGTKLTVL
notes: Humanized 29F1 with VL S52E; captured by anti-human Fc sensor
B15: MYT9729 (antibody, V domains shown)
VH: EVQLVESGGGLVQPGGSLRLSCTASGFSFSSSHWICWVRQAPGKGLEWVGCIYAGSIGSTYYASWAKGRFTISRDTSKNTVYLQMNSLRAEDTAVYYCARAPNDIYNYYFNLWGQGTLVTVSS
VL: EIVMTQSPSTLSASVGDRVIITCQAEENIYNYLAWYQQKPGKAPKLLIYYASTLASGVPSRFSGSGSGAEFTLTISSLQPDDFATYYCQSGYVSKSSTFGQGTKLTVL
notes: also called hu29F1 VL S26E
B16: MYT9744 (antibody, V domains shown)
VH: EVQLVESGGGLVQPGGSLRLSCTASGFSFSSSHWICWVRQAPGKGLEWVGCIYAGSIGSTYYASWAKGRFTISRDTSKNTVYLQMNSLRAEDTAVYYCARAPNDIYNYYFNLWGQGTLVTVSS
VL: EIVMTQSPSTLSASVGDRVIITCQASENIYNYLAWYQQKPGKAPKLLIYYASTLAEGVPSRFSGSGSGAEFTLTISSLQPDDFATYYCQSGYVSKSSTFGQGTKLTVL
notes: Humanized 29F1 with VL S56E; captured by anti-human Fc sensor

biological target: T1, Human LRRC15 Protein, His Tag (Acro Biosystems) (human, UniProt Q8TF66 22-538, limits assumed); test: BLI; dissociation pH 7.4 black, pH 5.4 grey [1/2); D00019 FIG. 4B (1/2]
T1 construct: not shown: His tag
T1 sequence (looked up): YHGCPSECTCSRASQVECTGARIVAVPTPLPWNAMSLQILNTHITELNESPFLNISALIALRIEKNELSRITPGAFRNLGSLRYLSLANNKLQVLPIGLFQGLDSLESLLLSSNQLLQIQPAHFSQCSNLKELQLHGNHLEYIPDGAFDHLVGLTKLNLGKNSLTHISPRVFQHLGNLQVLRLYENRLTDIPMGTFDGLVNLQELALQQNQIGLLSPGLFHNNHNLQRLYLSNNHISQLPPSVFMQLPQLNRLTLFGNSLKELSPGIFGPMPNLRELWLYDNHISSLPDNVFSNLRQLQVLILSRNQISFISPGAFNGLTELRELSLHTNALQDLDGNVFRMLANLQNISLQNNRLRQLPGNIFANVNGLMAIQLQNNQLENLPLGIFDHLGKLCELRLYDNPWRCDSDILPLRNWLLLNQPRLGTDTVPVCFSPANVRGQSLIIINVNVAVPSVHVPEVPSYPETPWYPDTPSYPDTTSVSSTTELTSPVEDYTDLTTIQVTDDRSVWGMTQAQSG
Method: Desirable mutations were transferred to a humanized framework (humanized, MYT 8387-8411). After allowing for four days of protein expression, cell culture supernatants were collected, quantified by SDS-PAGE analysis, and the pH dependence of the variant was evaluated using biolayer interferometry (BLI) on an Octet RED 96e instrument. Briefly, cell culture supernatants were diluted based on qualitative expression level of the variant determined by visual examination of SDS-PAGE gels, 5 μL of cell culture supernatant was diluted into 195 μL of 1×PBST, pH 7.4 for high expressors, 25 μL of cell culture supernatant was diluted into 175 μL of 1×PBST, pH 7.4 for medium expressors and 100 μL of cell culture supernatant was diluted into 100 μL of 1×PBST, pH 7.4 for low expressors for loading onto the sensor tips. The resulting diluted supernatants were then captured on an anti-human Fc sensor (Forte Bio). A baseline was established using 1×PBST (50 mM Potassium Phosphate Buffer+150 mM NaCl+0.05% Tween 20) pH 7.4, and the […] was associated with 50 nM of LRRC15 (Human LRRC15 Protein, His Tag, Acro Biosystems) in 1×PBST pH 7.4 for 120 sec to generate an association curve. In the dissociation phase, the antibody-antigen complex on the sensor was exposed to 1×PBST pH 7.4 or pH 5.4, for 300 sec. Association and dissociation phase curves were examined for the starting ABPC antibody (with no substitutions) and each corresponding antibody variant at pH 5.4 and pH 7.4 to inform on two criteria: a) enhanced dissociation (i.e., higher koff values) at pH 5.4 due to histidine substitution compared to the starting ABPC, (with no substitutions), and b) reduced dissociation at pH 7.4 (i.e., lower koff values) compared to pH 5.4 in the antibody variant itself and with the starting ABPC (with no substitutions).
The methods of Examples 9-10 were applied to RabMAb clone 29F1 (rabbit VH SEQ ID NO: 572 and VL SEQ ID NO: 578; and humanized VH SEQ ID NO: 576 and VL SEQ ID NO: 582).

Binding result, binds:
B1, B2

biological target: T2, Human LRRC15 Protein, His Tag, Acro Biosystems (human, UniProt Q8TF66 22-538, limits assumed); test: BLI; dissociation pH 7.4 black, pH 5.4 grey [D00028 FIG. 7B]
T2 construct: not shown: His tag
T2 sequence (looked up): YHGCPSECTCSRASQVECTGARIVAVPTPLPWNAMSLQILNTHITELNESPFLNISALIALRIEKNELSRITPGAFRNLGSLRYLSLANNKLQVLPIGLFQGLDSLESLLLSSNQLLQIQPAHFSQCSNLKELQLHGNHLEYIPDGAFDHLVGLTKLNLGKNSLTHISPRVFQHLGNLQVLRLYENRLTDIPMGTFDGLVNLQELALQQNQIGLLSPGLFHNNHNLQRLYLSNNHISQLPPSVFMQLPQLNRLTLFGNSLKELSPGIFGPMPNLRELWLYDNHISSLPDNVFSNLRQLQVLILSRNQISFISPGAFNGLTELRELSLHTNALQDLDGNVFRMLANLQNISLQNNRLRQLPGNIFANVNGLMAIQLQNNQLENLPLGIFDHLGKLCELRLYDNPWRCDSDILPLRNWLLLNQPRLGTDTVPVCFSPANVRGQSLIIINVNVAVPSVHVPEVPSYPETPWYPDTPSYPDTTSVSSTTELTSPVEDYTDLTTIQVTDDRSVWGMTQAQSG

Binding result, binds:
B3, B4, B5, B6, B7, B8, B9, B10, B11, B12, B13, B14, B15, B16
